Experimental data as given in patent US20220370545A1, “INTEGRIN RECEPTOR ALPHA V BETA 3 AND ITS LIGAND INVOLVED IN CHRONIC ITCH” (North Carolina State University, priority 2019, published 2022).

B1: periostin: fasciclin extracellular matrix protein, endogenous ligand of integrin αvβ3; mouse recombinant used (protein)
chain: NSYYDKVLAHSRIRGRDQGPNVCALQQILGTKKKYFSSCKNWYQGAICGKKTTVLYECCPGYMRMEGMKGCPAVMPIDHVYGTLGIVGATTTQHYSDVSKLREEIEGKGSYTYFAPSNEAWENLDSDIRRGLENNVNVELLNALHSHMVNKRMLTKDLKHGMVIPSMYNNLGLFINHYPNGVVTVNCARVIHGNQIATNGVVHVIDRVLTQIGTSIQDFLEAEDDLSSFRAAAITSDLLESLGRDGHFTLFAPTNEAFEKLPRGVLERIMGDKVASEALMKYHILNTLQCSEAITGGAVFETMEGNTIEIGCEGDSISINGIKMVNKKDIVTKNGVIHLIDEVLIPDSAKQVIELAGKQQTTFTDLVAQLGLASSLKPDGEYTLLAPVNNAFSDDTLSMDQRLLKLILQNHILKVKVGLSDLYNGQILETIGGKQLRVFVYRTAICIENSCMVRGSKQGRNGAIHIFREIIQPAEKSLHDKLRQDKRFSIFLSLLEAADLKDLLTQPGDWTLFAPTNDAFKGMTSEERELLIGDKNALQNIILYHLTPGVYIGKGFEPGVTNILKTTQGSKIYLKGVNETLLVNELKSKESDIMTTNGVIHVVDKLLYPADIPVGNDQLLELLNKLIKYIQIKFVRGSTFKEIPMTVYRPAMTKIQIEGDPDFRLIKEGETVTEVIHGEPVIKKYTKIIDGVPVEITEKQTREERIITGPEIKYTRISTGGGETGETLQKFLQKEVSKVTKFIEGGDGHLFEDEEIKRLLQGDTPAKKIPANKRVQGPRRRSREGRSQ

Key:
[1] = test system: MC903-induced spontaneous chronic itch in mice; test: MC903-induced mouse model of atopic dermatitis, spontaneous scratching; format: in vivo; conditions: cilengitide 100 nM by tail vein injection, Day 10
Procedure: C57BL6 mice (Jackson Labs, Ellsworth, Maine, United States of America) were applied daily with MC903 (4 nmol) and vehicle (97% ethanol) after brief anesthesia. Skin thickness was measured using cutimeter as described (Fukuyama et al., 2015). Scratching behavior was video-monitored for 30 min on Day 1 and Day 7. On Day 7 skin was collected from vehicle and MC903 treated mice for the Western Blot (WB) as described below. NC/Nga mice (Charles River, Yokohama, Japan) were sensitized and challenged with house dust mite (HDM) allergen (Dermatophagoides farina, Greer, Lenoir, N.C., United States of Amercia) as described previously (Fukuyama et al., 2018). […] Scratching behavior was video monitored for 60 min period immediately after HDM on day 42. […] The amount of periostin was determined using ELISA according to the manufacturer's instruction.
A mouse model of atopic dermatitis in mice is generated. […] At Day 10, vehicle or the compound (at least one dose) is administered intravenous/orally to the animals, and then measured the scratching behaviors for at least 60 min. In order to see the sub-chronic effect of the compound, vehicle and the compound is administered to MC903-treated animals for several days and the alteration of the scratching behaviors is measured.

[2] = test system: C57BL6J mice; test: Mouse cheek itch/pain model; format: in vivo; conditions: periostin 5 μg/20 μl into the cheek
Procedure: All behavioral experiments were conducted during the light cycle at ambient temperature (23° C.). Behavioral assessment of scratching behavior was conducted as described previously (Mishra et al., 2011). Briefly, mice were injected intradermal into the nape of the neck with periostin (R&D), histamine, and chloroquine (all Millipore-Sigma) as previously described (Shimada and LaMotte, 2008). Compounds were diluted in PBS and the same was used as a vehicle. […] Additionally, cilengitide and periostin were combined together (mix) and injected i.d. into the dorsal neck of mouse. Scratching behavior was recorded for 30 minutes and data was presented in bouts per 30 minutes for mice. […] For eye wipes assay, periostin and capsaicin were dropped on mouse cornea and counted wipes for 1-minute. […] For dog's study, periostin (25 μg/25 μl) was injected in the dorsal neck (s.c.) and behavior was recorded and quantified for 30 minutes as “duration of pruritus manifestation” (DPM), as described earlier (Paps et al., 2016). […] When different raters separately scored a single tape, the ratings indicated high interrater reliability (coefficient of correlation, r>0.95). This method of itch readout in NHP has been used and accepted (Ko and Naughton, 2000). The behavior was recorded for 30 minutes duration and number of scratches quantified. […]

Molecule | MC903-induced spontaneous itching [1] | scratching behavior, cheek injection [2] | wiping (pain behavior), cheek injection ([2]; compared to capsaicin)
CC(C)[C@H]1C(=O)N[C@@H](CCCN=C(N)N)C(=O)NCC(=O)N[C@@H](CC(=O)O)C(=O)N[C@H](Cc2ccccc2)C(=O)N1C [cilengitide, cyclo RGDf-n(Me)V] | significantly reduced | – | –
B1 | – | robust scratching behavior similar to that of histamine | did not induce wiping
